From US20250270300A1 (UNIVERSITY COURT OF THE UNIVERSITY OF ABERDEEN, published 2025)

Legend:
[1] = biological target: T1, Recombinant Hyr1 N-terminus fragment (Candida albicans, UniProt Q5AL03 63-350); assay: ELISA, plate coated with recombinant Hyr1 N-terminus, titrated mAb
T1 construct: the last 288 residues are Hyr1 63-350; Expressed in HEK293F cells, 32 kDa; also called recombinant N-terminus of the Hyr1 protein; purified Hyr1 protein
T1 sequence: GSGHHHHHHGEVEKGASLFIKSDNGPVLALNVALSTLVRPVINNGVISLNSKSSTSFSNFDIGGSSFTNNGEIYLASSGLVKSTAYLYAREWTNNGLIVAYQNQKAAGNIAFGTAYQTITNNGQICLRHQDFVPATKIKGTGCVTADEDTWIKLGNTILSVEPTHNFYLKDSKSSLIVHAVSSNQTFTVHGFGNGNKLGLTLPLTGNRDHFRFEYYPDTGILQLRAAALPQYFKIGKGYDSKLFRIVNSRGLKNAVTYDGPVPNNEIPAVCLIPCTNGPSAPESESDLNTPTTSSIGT

human serum albumin = biological target: T2, human serum albumin (human, UniProt P02768 25-609); assay: ELISA
T2 construct: also called HSA
T2 sequence (P02768 25-609 limits assumed): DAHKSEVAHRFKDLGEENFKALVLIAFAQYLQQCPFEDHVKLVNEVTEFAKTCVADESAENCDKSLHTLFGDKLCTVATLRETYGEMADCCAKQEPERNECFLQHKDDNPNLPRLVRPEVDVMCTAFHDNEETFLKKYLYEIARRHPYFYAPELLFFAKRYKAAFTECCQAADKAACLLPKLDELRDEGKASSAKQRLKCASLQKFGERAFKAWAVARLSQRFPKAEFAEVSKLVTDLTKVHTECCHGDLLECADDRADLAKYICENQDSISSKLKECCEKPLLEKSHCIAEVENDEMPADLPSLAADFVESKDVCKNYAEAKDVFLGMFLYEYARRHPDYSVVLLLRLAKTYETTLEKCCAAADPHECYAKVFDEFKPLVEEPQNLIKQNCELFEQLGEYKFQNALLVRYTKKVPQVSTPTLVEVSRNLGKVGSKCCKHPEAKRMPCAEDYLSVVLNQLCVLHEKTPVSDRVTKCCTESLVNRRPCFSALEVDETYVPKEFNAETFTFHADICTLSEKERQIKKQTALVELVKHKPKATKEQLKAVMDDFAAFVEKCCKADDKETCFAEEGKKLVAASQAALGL

B1: AB120 (antibody, human IgG1, V domains shown)
VH: EVQLVQSGGGLVQPGGSLGLSCAASGFIFTSYAMTWVRQAPGKGLEWVSVITGNVGTSYYADSVKGRFTISRDNSKKTVSLQMNSLRAEDTAIYYCVKTRYDFSSGYYFDDWGQGTLVSVSS
VL: DIVMTQSPSSVSASVGDKVTITCRASQGISRWLAWYQQKPGEAPELLIYAASSLQSGVPSRFSGSGSGTDFTLTISSLQPEDFATYYCQQANSFPITFGQGTRLQIK
notes: Tested as purified recombinant whole human IgG1 (Expi293F); also called 06-AB-120; anti-Hyr1 mAb
Question: B1 was tested. Which EC50 [1] did it give?
Answer: 0.104 µg/mL

Question: Does B1 bind (human serum albumin)?
Answer: no binding

B2: AB121 (antibody, human IgG1, V domains shown)
VH: EVQLVESGGTLVQPGGSLRLSCAASGFTFSDYWMNWVRQAPGKGLEWVANIKQDGSEKYYVDSLRGRVTISRDNAQNSVFLQMHSLSVEDTAVYYCARDGYTFGPATTELDHWGRGTLVSVSS
VL: QLVLTQPPSVSVSPGQTASITCSGDELRNKYTSWYQQKSGQSPVLVIYQDNNRPSGIPERFSGSQSGDTATLTISGTQAVDEADYYCQAWVSQTLVFGGGTKLTVL
notes: Tested as purified recombinant whole human IgG1 (Expi293F); also called 06-AB-121; anti-Hyr1 mAb
Question: How did the EC50 [1] turn out when B2 was run?
Answer: 0.0765 µg/mL

Question: Does B2 bind (human serum albumin)?
Answer: no binding

B3: AB122 (antibody, human IgG1, V domains shown)
VH: EVQLVQSGGGLAQPGRSLRLSCAASGFGFDDFAMHWVRQPPGKGLEWVSGLTWNGGSIDYAGSVRGRFTISRDNAKNSLFLQMNSLRAEDTALYYCAKGLSGGTMAPFDIWGQGTMVSVSS
VL: QAGLTQPPSVSVAPGQTATIPCGGNNIGSKHVHWYQQKPGQAPVAVVYDDSDRPSGVPERFSGSNSGNTATLTISSVEAGDEADYYCQVWDRSSDHFWLFGGGTRLTVL
notes: Tested as purified recombinant whole human IgG1 (Expi293F); also called 06-AB-122; anti-Hyr1 mAb
Question: Which results are given for B3?
Answer: EC50 [1]: 0.0496 µg/mL; binding result (human serum albumin): no binding

B4: AB123 (antibody, human IgG1, V domains shown)
VH: EVQLLESGGGVVQPGRSLRLSCAASGFTFSNYGMHWVRQAPGKGLEWVAVVWFDGSYKYYTDSVKGRFTISRDNSKSTLYLQMNSLRAEDTAVYYCVSPIMTSAFDIWGPGTMVSVSS
VL: QLVLTQPPSASGSPGQSVTISCTGTSSDVGGSNFVSWYQHHPGKAPKLMIYEVSQRPSGVPDRFSGSKSGNTASLTVSGLQADDEADYYCSSYAGSVVLFGGGTKLTVL
notes: Tested as purified recombinant whole human IgG1 (Expi293F); also called 06-AB-123; anti-Hyr1 mAb
Question: With B4 as the binder, how does the EC50 [1] read?
Answer: 0.0533 µg/mL

Question: Does B4 bind (human serum albumin)?
Answer: no binding

B5: AB124 (antibody, human IgG1, V domains shown)
VH: EVQLVESGGGVVQPGRSLRLSCAASGFTFSNYGMHWVRQAPGKGLEWVAVVWLDGSYKYYTGSVKGRFTISRDNSKSTLYLQMNSLRAEDTAAYYCVSPIMTSAFDIWGPGTMVTVSS
VL: QLVLTQPPSASGSPGQSVTISCTGTSSDVGGSNFVSWYQHHPGKAPKLMIYEVSQRPSGVPDRFSGSKSGNTASLTVSGLQADDEADYYCSSYAGSVVLFGGGTKLTVL
notes: Tested as purified recombinant whole human IgG1 (Expi293F); also called 06-AB-124; anti-Hyr1 mAb
Question: B5 was tested. Which EC50 [1] did it give?
Answer: 1.05 µg/mL

Question: Does B5 bind (human serum albumin)?
Answer: no binding

B6: AB129 (antibody, human IgG1, V domains shown)
VH: QVQLVESGGGLVQPGGSLRLSCSASQFILSNYWVHWVRQVPGEGLVWVSRINEDGSVTSYADSVKGRFTISRDNAKNTLYLQMNSLRVDDTAVYYCVRDLCGERDDWGQGTLVTVSS
VL: VIWMTQSPLSLPVTPGEAASISCRSSQSLLHRNGRTFFAWYLQKPGQSPQILIYLGSNRAFGVPDRFSGSGSGTDFTLKISRVEAEDVGIYYCMQGLQTPYTFGQGTKLEIK
notes: Tested as purified recombinant whole human IgG1 (Expi293F); also called 06-AB-129; anti-whole cell mAb
Question: Does B6 bind (human serum albumin)?
Answer: no binding

B7: AB118 (antibody, human IgG1, V domains shown)
VH: EVQLVESGGGLVQPGGSLRLSCSASQFILSNYWVHWVRQVPGEGLVWVSRINEDGSVTSYADSVKGRFTISRDNAKNTLYLQMNSLRVDDTAVYYCVRDLCGERDDWGQGTLVSVSS
VL: DIVMTQSPLSLPVTPGEAASISCRSSQSLLHRNGKTFFAWYLQKPGQSPQILIYLGSNRASGVPDRFSGSGSGTDFTLKISRVEAEDVGIYYCMQGLQTPYTFGQGTKLEIK
notes: Tested as purified recombinant whole human IgG1 (Expi293F); also called 06-AB-118; anti-whole cell mAb
Question: Does B7 bind (human serum albumin)?
Answer: no binding

B8: AB130 (antibody, human IgG1, V domains shown)
VH: QLQLQESGGGLVQPGGSLRLSCSASQFILSNYWVHWVRQVPGEGLVWVSRINEDGSVTSYADSVKGRFTISRDNAKNTLYLQMNSLRVDDTAVYYCVRDLCWERDDWGQGTLVSVSS
VL: VIWMTQSPLSLPVTPGEAASISCRSSQSLLHRNGRTFFAWYLQKPGQSPQILIYLGSNRAFGVPDRFSGSGSGTDFTLKISRVEAEDVGIYYCMQGLQTPYTFGQGTKLEIK
notes: Tested as purified recombinant whole human IgG1 (Expi293F); also called 06-AB-130; anti-whole cell mAb
Question: Does B8 bind (human serum albumin)?
Answer: no binding

B9: AB119 (antibody, human IgG1, V domains shown)
VH: QVTLKESGGGLVQPGGSLRLSCVASGFTFRTYWMHWVRQDPGKGLVWVSRLDEVGRLTSYADSVNGRFTISRDNAKNILYLQMNSLRAEDTGVYYCARDLSGSADYWGQGTLVTVSS
VL: DVVLTQSPLFLPVTPGEPASISCRSSQSLLHSRGHTSLHWYLQKPGQSPHLLIYSVFNRASGVPDRFSGSGSGTDFTLKISRVEAEDVGVYYCMQALEPPYTFGQGTKLEIK
notes: Tested as purified recombinant whole human IgG1 (Expi293F); also called 06-AB-119; anti-whole cell mAb
Question: Does B9 bind (human serum albumin)?
Answer: no binding

B10: AB126 (antibody, human IgG1, V domains shown)
VH: EVQLVESGGGLAQPGGSLRLSCEASGFHLAGNAMAWVRQAPGKGLEWVAAIGGSDDRTDYADSVKGRFTISRDKSKNTLSLQMNSLRVEDTAVYYCAKDIWRWAFDYWGQGTLVSVSS
VL: DIVMTQSPATLSLSPGERATLSCWASQYINTYVNWYQHKPGQAPRLLIYDASKRATGIPARFSGSGSGTDFTLTISSLEPEDFAVYYCQQGSNWPLTFGQGTRLEIK
notes: Tested as purified recombinant whole human IgG1 (Expi293F); also called 06-AB-126; anti-whole cell mAb
Question: Does B10 bind (human serum albumin)?
Answer: no binding

B11: AB127 (antibody, human IgG1, V domains shown)
VH: EVQLVESGGGLVNPGGSLRLSCAASGFTFSNYAMNWVRQAPGKGLEWVSSISRSGDYIYYADSLKGRSTISRDNAKNSLFLQMNSLRAEDSAVYYCARDWGRLGYCSSNNCPDAFDVWGQGTRVSVSS
VL: EIVMTQSPSFVSASVGDRVTITCRASQDISNWLVWYQQKPGKAPKLLIYASSNLQSGVPSRFSGSGSGTDFALTIISLQPEDFATYYCQQENSFPYTFGQGTKLEIK
notes: Tested as purified recombinant whole human IgG1 (Expi293F); also called 06-AB-127; anti-whole cell mAb
Question: Does B11 bind (human serum albumin)?
Answer: no binding

B12: AB131 (antibody, human IgG1, V domains shown)
VH: QVQLVQSGGGVVQPGGSLRLSCAASPFTFKTSILHWVRQAPGKGLEWVSAMSYDGFSKYYADSVKGRLTISRDSSTNTLYLEMNSLRFEDTALYFCAREAYTSGRAGCFNPWGQGVLVSVSS
VL: DIVMTQTPSTQSASVGDRVTITCRASQSISIWLAWYQQKPGKAPKLLIHDASTLESGVPSRFSGSGSGTEFTLTISSLQPDDSATYYCQRYNDYPPTFGPGTKVEIK
notes: Tested as purified recombinant whole human IgG1 (Expi293F); also called 06-AB-131; anti-whole cell mAb
Question: Does B12 bind (human serum albumin)?
Answer: no binding

B13: AB132 (antibody, human IgG1, V domains shown)
VH: QVLKESGGGVVQPGGSLRLSCAASPFTFETSILHWVRQAPGKGLEWVSAMSYDGFSKYYADSVKGRLTISRDSSTNTLYLEMNSLRFEDTALYFCAREAYTSGRAGCFDPWGQGVLVSVSS
VL: EIVMTQSPSTQSASVGDRVTITCRASQSISIWLAWYQQKPGKAPKLLIHDASTLESGVPSRFSGSGSGTEFTLTISSLQPDDSATYYCQRYNDYPPTFGPGTKVEIK
notes: Tested as purified recombinant whole human IgG1 (Expi293F); also called 06-AB-132; anti-whole cell mAb
Question: Does B13 bind (human serum albumin)?
Answer: no binding

B14: AB133 (antibody, human IgG1, V domains shown)
VH: EVQLVESGGGLVQPGGSLRVSCAASGFTLNTYWMHWVRQAPGKGLVWVSRINEDGTTISYADSVRGRFTISRDNAENTLYLQMHSLRAEDTGVYYCARDFTGPFDSWGQGTLVSVSS
VL: QSVLTQPPSVSGTPGQRVTISCSGSNSNAGRDYVSWYQQVPGTAPKLLIYKNNQRPSGVPDRFSGSKSGTSASLAISGLRSEDDGDYYCIVWDGSLSGYVFGTGTKVTVL
notes: Tested as purified recombinant whole human IgG1 (Expi293F); also called 06-AB-133; anti-whole cell mAb
Question: Does B14 bind (human serum albumin)?
Answer: no binding

B15: AB139 (antibody, human IgG1, V domains shown)
VH: EVQLVESGGGLVQPGGSLRVSCAASGFTLNTYWMHWVRQAPGKGLVWVSRINEDGTTISYADSVRGRFTISRDNAENTLYLQMHSLRAEDTGVYYCARDFTGPFDSWGQGTLVSVSS
VL: QSVLTQPPSVSGTPGQRVTISCSGSNSNVGRDYVSWYQQVPGTAPKLLIYKNNRRPSGVPDRFSGSKSGTSASLAISGLRSEDDGDYYCIVWDGSLSGYVFGTGTKVTVL
notes: Tested as purified recombinant whole human IgG1 (Expi293F); also called 06-AB-139; anti-whole cell mAb
Question: Does B15 bind (human serum albumin)?
Answer: no binding

B16: AB140 (antibody, human IgG1, V domains shown)
VH: EVQLVESGGGLVQPGGSLRVSCAASGFTLNTYWMHWVRQAPGKGLVWVSRINEDGTTISYADSVRGRFTISRDNAENTLYLQMHSLRAEDTGVYYCARDFTGPFDSWGQGTLVSVSS
VL: QLVLTQPPSVSGTPGQRVTISCSGSNSNVGRDYVSWYQQVPGTAPKLLIYKNNQRPSGVPDRFSGSKSGTSASLAISGLRSEDDGDYYCIVWDGSLSGYVFGTGTKVTVL
notes: Tested as purified recombinant whole human IgG1 (Expi293F); also called 06-AB-140; anti-whole cell mAb
Question: Does B16 bind (human serum albumin)?
Answer: no binding

B17: AB134 (antibody, human IgG1, V domains shown)
VH: QLQLQESGGGLVQPGGSLRLSCVVSGFTFSSHAMSWVRQAPGKGLEWVSSISISGGDTFYADSVRGRFTIFRDNSKNTVYLQMNSLRAEDTAVYYCATETSPNDYWGQGTLVSVSS
VL: SYELTQPSSLTVSPGGTVTLTCGLSSGAVTSGHYPYWFQQKPGQAPKTLIFDTSRKHSWTPARFSGSLLGGKAALTLSGAQPEDDADYYCLLACNGACVFGGGTKLTVL
notes: Tested as purified recombinant whole human IgG1 (Expi293F); also called 06-AB-134; anti-whole cell mAb
Question: Does B17 bind (human serum albumin)?
Answer: no binding

B18: AB135 (antibody, human IgG1, V domains shown)
VH: EVQLVETGGGLVQPGGSLRLSCVVSGFTFSSHAMSWVRQAPGKGLEWVSSISISGGDTFYADSVRGRFTIFRDNSKNTVYLQMNSLRAEDTAVYYCATETSPNDYWGQGTLVTVSS
VL: SYELTQPSSLTVSPGGTVTLTCGLSSGAVTSGHYPYWFQQKPGQAPKTLIFDTSRKHSWTPARFSGSLLGGKAALTLSGAQPEDDADYYCLLACNGACVFGGGTKLTVL
notes: Tested as purified recombinant whole human IgG1 (Expi293F); also called 06-AB-135; anti-whole cell mAb
Question: Does B18 bind (human serum albumin)?
Answer: no binding
